Source: US20240358826A1 (ORIONIS BIOSCIENCES, published 2024)
Values belong to the binder of their own block, whether it stands above or below them.

Target: human CD8 alpha (human, UniProt P01732 22-235)
Experiment: cell-based or functional assay

human CD8 alpha, sequence (P01732 22-235): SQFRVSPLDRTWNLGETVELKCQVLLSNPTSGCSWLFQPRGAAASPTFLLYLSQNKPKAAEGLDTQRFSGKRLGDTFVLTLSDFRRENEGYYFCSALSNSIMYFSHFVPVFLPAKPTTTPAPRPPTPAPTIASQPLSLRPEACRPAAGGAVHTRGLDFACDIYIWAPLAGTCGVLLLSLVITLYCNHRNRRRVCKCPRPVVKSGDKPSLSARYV

- EC50, CD8+ HekBlue-IL-1β cells (SEAP): ~0.3 ng/mL
B1: hCD8 VHH 1CDA65_20GGS_IL1α delta 1-6_1GGS_9xhis (other)
chain: QVQLQESGGGLVQPGGSLRLSCAASGSIFSINVMGWYRQTPGKERELVAKITNFGITSYADSAQGRFTISRGNAKNTVYLQMNSLKPEDTAVYYCNLDTTGWGPPPYQYWGQGTQVTVSSVDGGSGGSGGSGGSGGSGGSGGSGGSGGSGGSGGSGGSGGSGGSGGSGGSGGSGGSGGSGGSLSNVKYNFMRIIKYEFILNDALNQSIIRANDQYLTAAALHNLDEAVKFDMGAYKSSKDDAKITVILRISKTQLYVTAQDEDQPVLLKEMPEIPKTITGSETNLLFFWETHGTKNYFTSVAHPNLFIATKQDYWVCLAGGPPSITDFQILENQAGGSHHHHHHHHH

- EC50, CD8+ HekBlue-IL-1β cells (SEAP): ~0.3 ng/mL
B2: IL1α delta 1-6_20GGS_hCD8 VHH 1CDA65_1GGS_9xhis (other)
chain: LSNVKYNFMRIIKYEFILNDALNQSIIRANDQYLTAAALHNLDEAVKFDMGAYKSSKDDAKITVILRISKTQLYVTAQDEDQPVLLKEMPEIPKTITGSETNLLFFWETHGTKNYFTSVAHPNLFIATKQDYWVCLAGGPPSITDFQILENQAGGSGGSGGSGGSGGSGGSGGSGGSGGSGGSGGSGGSGGSGGSGGSGGSGGSGGSGGSGGSQVQLQESGGGLVQPGGSLRLSCAASGSIFSINVMGWYRQTPGKERELVAKITNFGITSYADSAQGRFTISRGNAKNTVYLQMNSLKPEDTAVYYCNLDTTGWGPPPYQYWGQGTQVTVSSVDGGSHHHHHHHHH
